The values below come from patent US10077303B2, “Anti-neurotensin antibodies and uses thereof” (INSERM (INSTITUT NATIONAL DE LA SANTÉ ET DE LA RECHERCHE …, priority 2014, dated 2018).

In assay [1] the test system is A2780 cells. The experiment in a line: A2780 ovarian cancer tumor xenograft, cisplatin response. The assay is classed as in vivo, NMRI-Nude Foxn1 mice. Here is the method: FIG. 8. […] 3 million A2780 cells were injected into mice. When tumors generated by A2780 reached an average volume of 200 mm^3, mice were randomized into 4 groups. Mice were treated with PBS, or 15 mg/kg NTSp27-7.4 every other day and/or with cisplatin 1 mg/kg day at 1, 3, 5, and 7 days. Results are the mean of 8 to 12 mice performed in two different independent experiments.
A2780 cells (3×10^6) cells were combined with […] and 50 μl […]® (a gelatinous protein mixture), then injected subcutaneously into the right hind leg of 4 week old female NMRI-Nude Foxn1 mice. Treatment started when tumors reached approximately 200 mm3. Tumor volume was calculated every two days by using the following equation: tumor volume (mm3)=4/3×π×(length/2)×(width/2)×(height/2). After treatment, the mice were sacrificed and tumors were fixed in formalin.

Assay [2] concerns R-SI NTSR1 cells. The experiment in a line: cisplatin test, R-SI NTSR1 tumor xenograft. The class given is in vivo, NMRI nu/nu mice. Here is the method:
(§1) FIG. 6. […] A) LNM-R or R-SI NTSR1 cells (LNM-R expressing sh-RNA for NTSR1) were injected into the left and the right flanks of the mice, respectively; Mice were treated with PBS, or 15 mg/kg NTSp27-7.4 every other day and/or with cisplatin 1 mg/kg day 1, 3, 5, 7, 15, 17, and 19. At day one, 9 and 8 mice were randomized for the size of the LNM-R tumors; reaching approximately 95 mm3 on average. Mice were treated every other day and measured every day. B) Tumor growth rate from day one generated by R-SI NTSR1 cells (right flank).
(§2) Cisplatin test, 1×10^6 LNM-R cells and 1×10^6R-SI NTSR1 were subcutaneously inoculated in NMRI nu/nu mice, LNM-R in the left flank and R-SI NTSR1 in the right flank. When tumors generated by LNM-R reached an average volume of 95 mm^3, mice were randomized in 5 groups of 8 to 10 mice. Group 1 was administered with PBS, group 2 with antibody NTSp27-7.4 (i.p. every other day, 15 mg/kg) for total of 13 times and group 3 with mouse IgG (i.p. every other day, 15 mg/kg). Group 4 was administered with PBS and cisplatin (1 mg/kg at day 1,3 5 7, 15, 17, and 19) and groups 5 with antibody NTSp27-7.4 (i.p. every other day, 15 mg/kg) and cisplatin (1 mg/kg at day 1,3 5 7, 15, 17, and 19). The volume of tumor was measured every other day.

Assay [3] deals with LNM-R cells. The experiment in a line: cisplatin test, LNM-R tumor xenograft. The assay is classed as in vivo, NMRI nu/nu mice. The note with it: for day the experiment was stopped because of the large size of the tumors: control group stopped after 21. Here is the method: as §1, §2
The subject of assay [4] is MDA-MB 231 cells. The experiment in a line: MDA-MB 231 breast cancer tumor xenograft. The class given is in vivo, NMRI nu/nu mice. Conditions: 15 mg/kg i.p. every other day. Here is the method: (§3) FIG. 5. NTSp27-7.4 inhibits experimental tumor growth generated by breast cancer cell lines. Tumor growth generated by MDA-MB 231 cells (left flank) (A), and MDA Si2 cells (right flank) (B), and treated for 24 days with PBS, or 15 mg/kg […]. At day one, 7, and 6 mice were randomized for the size of MDA-MB231 tumors size; reaching approximately 50 mm3. Mice were treated and measured every other day.
(§4) 3×10^6 MDA-MB 231 cells and 3×10^6 MDA si2 were subcutaneously inoculated in 100 μl of […]® (a gelatinous protein mixture) the left flank and the right flank of the NMRI nu/nu mice, respectively. When tumors generated by MDA reached an average volume of 50 mm^3, mice were randomized in 2 groups, then administered antibody NTSpP27-7.4 (i.p. every other day, 15 mg/kg) for total 12 times. PBS was used as the vehicle control.

For assay [5], the system named is Hep 3B, HepR1a, and HepR2b cells. The assay is described as follows: collagen type 1 invasion assay of hepatocellular carcinoma cells. The assay is classed as cell-based. Conditions: Hep-R1a and Hep-R1b; 3.75 μg/ml purified antibody. Here is the method: FIG. 3. […] A) Migration in a collagen 1 invasion assay of Hep 3B, HepR1a, and HepR2b cells. Results represent the mean±SEM of 3 experiments. Results are expressed as a % on invasive cells of control cells, Hep3B. […] B) Migration in a collagen type 1 invasion assay of Hep 3B, HepR1a, and HepR2b cells in a presence of 3.75 μg/ml of purified NTSp27-7.4 or mouse IgG. Results represent the mean±SEM of 3 experiments. Results are expressed as a % on invasive cells of respective control cells.
(§5) The cell culture insert (8 μm, Beckton Dickinson®) was coated with type I collagen (100 μl/well, 4×10^2 μg/ml, Sigma®) at 37° C. 24 h before the assay. 1 million MCF, NTS-h, Hep 3B, HepR1a, and HepR2b cells were seeded in the insert with 250 μl of serum free medium in presence or absence of 7 μg antibodies NTSp27-7.4. Outside the insert, 750 μl medium with 10% FCS was added in the well as chemoattractant. After 48 h of incubation, the non-invading cells and collagen are removed from the upper surface of the membrane by scrubbing with a cotton swab. Invading cells (those adhering to the bottom surface of the membrane) were fixed and stained with the Kwif diff stain kit(Thermo®) and the number of stained cells were counted with an inverted microscope at 200× magnification.

Assay [6] relates to LNM-R cells. The assay is described as follows: LNM-R lung cancer tumor xenograft. The assay is classed as in vivo, NMRI nu/nu mice. The note with it: 15 mg/kg i.p. every other day. Here is the method:
(§6) FIG. 4. NTSp27-7.4 inhibits experimental tumor growth generated by lung cancer cell lines. A) LNM-R or R-SI NTSR1 cells (LNM-R expressing sh-RNA for NTSR1) were injected into the left and the right flank of the mice, respectively. Here is shown an example of a mouse from each group after 15 days of treatment. B) Tumor growth generated by LNM-R cells (left flank) xenografted into nude mice and treated for 15 days with PBS, or 15 mg/kg NTSp27-7.4. At day one, 10, and 8 mice were randomized on LNM-R tumors size reaching approximately 40 mm3 for control and NTSp27-7.4 group, respectively. Mice were treated every other day and measured every day. C) Tumor growth generated by R-SI NTSR1 cells (right flank) xenografted into the same mice. D and E) Tumor growth rate from day one generated by LNM-R cells (left flank) and R-SI NTSR1 cells (right flank).
(§7) 1×10^6 LNM-R cells and 1×10^6R-SI NTSR1 were subcutaneously inoculated in NMRI nu/nu mice, LNM-R in the left flank and R-SI NTSR1 in the right flank. When tumors generated by LNM-R reached an average volume of 40 mm^3, mice were randomized in 2 groups, then administered antibody NTSpP27-7.4 (i.p. every other day, 15 mg/kg) for total 8 times. PBS was used as the vehicle control. The volume of tumor was measured daily.

Assay [7] has as its system R-SI NTSR1 cells. The experiment in a line: R-SI NTSR1 tumor xenograft (same mice, right flank). The assay is classed as in vivo, NMRI nu/nu mice. Conditions: non-expressing NTSR1 tumors, 15 mg/kg. Here is the method: as §6, §7
Assay [8] deals with MCF-7 cell overexpressing NTS. The assay is described as follows: invasion test on type I collagen of MCF-7 cells overexpressing NTS (NTS-h). The class given is cell-based. The note with it: NTS-overexpressing clones vs MCF-7; EGF 100 ng/mL; 7 μg antibody. Here is the method: The experiment was repeated twice.
as §5

In assay [9] the test system is MDA si2 cells. The experiment in a line: MDA Si2 tumor xenograft (same mice, right flank). The assay is classed as in vivo, NMRI nu/nu mice. Conditions: MDA Si2 tumors (NTSR1-). Here is the method: as §3, §4

As to `N.N.[Cl][Pt][Cl]` [cisplatin, reference compound], the “A2780 tumor growth rates as compared to PBS treated mice” value in [1] (cisplatin 1 mg/kg at 1, 3, 5, and 7 days) is “slightly but not significantly altered”. In addition, the “R-SI NTSR1 tumor size” value in assay [2] (cisplatin 1 mg/kg, growth ratio to D1) is reported as “decreased”. For the same molecule, in [3] (cisplatin 1 mg/kg day 1,3,5,7,15,17,19, IgG 15 mg/kg every other day), the “LNM-R tumor growth rate as compared to PBS treated mice” value is “not altered”. Also, in [3], the “day the experiment was stopped because of the large size of the tumors” value came out at 23 days.

B1: NTSp27-7.4: NTS neutralizing monoclonal antibody from hybridoma clone 7.4; VH SEQ ID NO:1, VL SEQ ID NO:5 (antibody, V domains shown)
VH: DVKLVESGGGLVKLGGSLKLSCAASGFTFSGYYMSWVRQTPEKRLELVAAINNYGDNTNYPDTVKGRFSVSRDNAKNTLYLEMNSLKSEDTALYYCARLANYANQRGAMDYWGQGTSVTVSS
VL: DIQMTHTTSSLSASLGDRVTISCRASQDIANYLNWYQQKPDGTVTLLIYYTSRLHSGVPSRFSGSGSGTDYSLTINNLDQEDIATYFCQQGYTLPPTFGGGTKLEIK
modifications: Synthetic VH sequence; Synthetic VL sequence
Turning to B1, in assay [4] (24 days), the “MDA-MB231 tumor growth as compared to PBS treated animals” value was “strong reduction”. The “tumor growth rate from D1” value in [4] (PBS 4.4±0.33) is given as 1.5±0.1 fold. For the same molecule, the “tumor doubling time after 24 days of treatment” value in [4] (control 11.63±1) amounted to 52.8 ± 17.6 days. Further, the “invasive rate of the cells expressing NTS and NTSR1” value in assay [5] was “reduced”. The “tumor size smaller as compared to controls” value in assay [6] (15 days, vs PBS) came to 2.6 times. Also, the “tumor growth from D1” value in assay [6] (PBS 24.68±4.05) was found to be 8.22±1.84 fold. Besides, the “tumor doubling time after 16 days of treatment” value in assay [6] (control 3.43±0.34) was 5.11 ± 0.38 days. The molecule further had an A2780 tumor size in assay [1] (antibody 15 mg/kg every other day, with or without cisplatin 1 mg/kg, PBS 2062±371.5, p=0.054 vs PBS, p=0.0058 vs cisplatin) of 1280±262.0 mm^3. Further, in assay [7], the “size of the tumor and growth rate vs PBS” value is reported as “not different”. In assay [2] (combined treatment of NTSp27-7.4 with cisplatin), the “R-SI NTSR1 tumor growth rate” value is on record as “do not change”. Further, in [8], the “induction of invasiveness induced or not by EGF” value was “inhibited”. Further, the “tumor sizes, growth rate and doubling time vs PBS” value in [9] is on record as “no difference”. The LNM-R tumor size entry in assay [3] (antibody 15 mg/kg every other day, with or without cisplatin 1 mg/kg) is recorded as “smaller”. Moreover, in assay [3], the “day the experiment was stopped because of the large size of the tumors” value stood at 25 days.
